# Where two headings read alike, the source gives them in different places. Where a SMILES comes first, the peptide text is derived from it. [ ]: non-standard residue; d: D form. The star is where a group is joined. Sta = CC(C)C[C@H](N)[C@@H](O)CC(=O)O; Isovaleryl = CC(C)CC(=O)*
# T1: equistatin, isolated from sea anemone Actinia equina
# T1 sequence: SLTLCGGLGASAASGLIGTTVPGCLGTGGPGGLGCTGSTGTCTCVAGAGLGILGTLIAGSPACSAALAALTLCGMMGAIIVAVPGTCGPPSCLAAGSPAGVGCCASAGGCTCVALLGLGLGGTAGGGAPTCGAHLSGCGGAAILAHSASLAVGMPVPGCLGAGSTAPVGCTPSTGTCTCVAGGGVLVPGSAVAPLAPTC
# T2: papain (UniProt P00784 134-345)
# T2 construct: also called cysteine proteinase, papain
# T2 sequence (looked up): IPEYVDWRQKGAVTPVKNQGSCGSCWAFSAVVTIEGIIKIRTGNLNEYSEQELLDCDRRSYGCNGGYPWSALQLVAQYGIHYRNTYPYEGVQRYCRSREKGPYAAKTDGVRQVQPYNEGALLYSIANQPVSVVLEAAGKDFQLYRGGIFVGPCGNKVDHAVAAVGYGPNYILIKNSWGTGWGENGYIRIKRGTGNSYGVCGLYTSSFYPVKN
# Assays:
# [1] = target: proteases in extracts of adult leafminer flies (Liriomyza trifolii); test: cell-based or functional assay
# [2] = target: proteases in extracts of adult western flower thrips (Frankliniella occidentalis); test: cell-based or functional assay
# [3] = target: potato protease inhibitor-insensitive cysteine proteases of Colorado potato beetle (Leptinotarsa decemlineata) larval gut extracts; test: cell-based or functional assay
# [4] = tested on: T1, equistatin, isolated from sea anemone Actinia equina
# cysteine proteases = settings: Yamashita and Konagaya (1996); cited from earlier work
# thrips protease activity = test: Protease activity of adult western flower thrips extract, FITC-hemoglobin; type: biochemical, Frankliniella occidentalis; parameters: inhibition of protease activity: concentration or dose not given beside the values
# Procedure: (§1) Adult western flower thrips (Frankliniella occidentalis) and leafmirer flies (Liriomyza trifolii) adult were harvested from a culture maintained on chrysanthemum plants and complete thrips and flies were homogenized in extraction on buffer (200 mM β-alanine-HCl, pH 3.5) in a volume of 5 times the weight of the insects. The buffer pH was at the previously determined pH optimum of protease activity towards hemoglobin. Final instar Colorado potato beetle larvae maintained on potato plants as described in example 5 were checked for gut aspartic protease activity by preparing a total gut extract in pH 3 buffer which is optimal for Colorado potato beetle aspartic proteases (200 mM glycine, pH 3). Guts were homogenized in 100 μl buffer per gut. Third instar western corn rootworm larvae maintained on corn roots were used to remove the guts. Ten guts were homogenized in 100 μl water and spinned twice to remove insoluble material. Two types of buffers were used in the enzymatic assay. One with a pH presumably favoring cysteine proteases (50 mM MES, pH 6.5; 0.6 mg/ml L-cysteine) and one for detecting aspartic proteases (200 mM glycine, pH 3). Supernatants were stored at −20° C.
# (§2) 2 μl gut extract was combined with 2 μl inhibitor (2 mM pepstatin in methanol, 4 mM E64 in water, 2 mg/ml recombinant equistatin in water. The concentration of the other proteinaceous inhibitors was not known exactly). Appropriate buffers were added to a final volume of 100 μl. After 15′ preincubation 20 μl substrate (5 mg/ml FITC-hemoglobin) was added and incubated for 30-45 min at 37 C.
# (§3) Reaction was stopped by the addition of 100 μl 10% TCA. Tubes were centrifuged and 100 μl supernatant mixed with 100 μl 10 N NaOH was measured on a fluorimeter for the extent of hemoglobin hydrolysis. Measurements were done in duplicate on one (thrips, leafminer and western corn rootworm), or three (Colorado potato beetle) different gut extracts and varied by a maximum of +/−5%.
# leafminer proteases = test: Protease activity of adult leafminer fly extract, FITC-hemoglobin; type: biochemical, Liriomyza trifolii; settings: leafminer pH 3.5; equistatin purified from sea anemone
# Procedure: as §1, §2, §3
# [5] = tested on: western corn rootworm cysteine and aspartic protease activity; test: Protease activity of western corn rootworm larval gut extract, FITC-hemoglobin; type: biochemical, Diabrotica virgifera; settings: recombinant equistatin
# Procedure: as §1, §2, §3
# [6] = tested on: Colorado potato beetle proteases; test: Protease activity of Colorado potato beetle larval gut extract at pH 3, FITC-hemoglobin; type: biochemical, Leptinotarsa decemlineata; parameters: inhibition of total protease activity / increase of inhibition by addition of equistatin to E64 / increase of inhibition by addition of equistatin to pepstatin: concentration or dose not given beside the values
# Procedure: as §1, §2, §3
# papain [7] = target: T2, papain; test: continuous rate enzyme inhibition assay with papain; Ki = kd/ka
# cathepsin D [8] = target: T3, cathepsin D (Homo sapiens, UniProt P07339); test: steady state inhibition of cathepsin D hydrolysis of chromophoric substrate
# papain [9] = target: T2, papain; test: continuous rate enzyme inhibition assay with papain
# cathepsin D [10] = target: T3, cathepsin D; test: steady state inhibition of cathepsin D hydrolysis of chromophoric substrate; remark: listed apart in the source
# [11] = tested on: endoprotease activity of Colorado potato beetle larval gut extracts; test: Narrow spectrum endoprotease activity of Colorado potato beetle gut extract, Z-Arg-Arg-pNA; type: biochemical, Leptinotarsa decemlineata; settings: excess inhibitor
# From the text: (§4) Guts of final instar Colorado potato beetle larvae reared on methyl jasmonate induced plants were isolated and extracted essentially as described (Bolter and Jongsma, J. Insect Physiol. 41: 1071-1078). In these gut extracts the proteases that are sensitive to the protease inhibitors of potato are already complexed. The residual protease activity is composed of potato protease-inhibitor-insensitive proteases which were induced in response to the methyl jasmonate induced potato inhibitors. These proteases are the proteases that render the beetle larvae insensitive to protease inhibitor defense of the potato plant. Wle tested a broad range of different cysteisie protease inhibitors for activity specifically against these induced potato protease inhibitor-insensitive cysteine protesses. Nearly all of these inhibitors were purified at the Jozef Stefan Institute in Slovenia. Testing their potential against Colorado potato beetle was done using both general protein substrates (azocasein, table 2) as well as specific synthetic substrates (L-Arg-pNA, table 3; pGlu-Phe-Leu-pNA, table 4; Z-Phe-Arg-pNA, table 5; Z-Arg-Arg-pNA, table 6). In specific cases inhibitors were tested at two concentrations, eauimolar and in excess to the protease, in order to obtain an indication of the tightness of the complex. […] Importantly, this class of inhibitors was capable of inhibiting nearly all general cysteine protease activity. The equistatin peptide molecule and a functional derivative thereof were not very active against the aminopeptidase-like cysteine protease activity. […] The best combination of inhibitors for full toxicity against the Colorado potato beetle would therefore be a combination of equistatin or p41 invariant chain fragment and stefin-like inhibitors.
# [12] = tested on: Colorado potato beetle larval gut extracts (potato protease inhibitor-insensitive cysteine proteases); test: General proteolytic activity of Colorado potato beetle larval gut extracts, azocasein; type: biochemical, Leptinotarsa decemlineata
# From the text: as §4
# [13] = tested on: endoprotease activity of Colorado potato beetle larval gut extracts; test: Broad spectrum endoprotease activity of Colorado potato beetle gut extract, Z-Phe-Arg-pNA; type: biochemical, Leptinotarsa decemlineata
# From the text: as §4
# [14] = tested on: tri-peptidil-peptidase and endoprotease activity of Colorado potato beetle larval gut extracts; test: Tri-peptidil-peptidase and endoprotease activity of Colorado potato beetle gut extract, pGlu-Phe-Leu-pNA; type: biochemical, Leptinotarsa decemlineata
# From the text: as §4
# [15] = tested on: amino-peptidase activity of Colorado potato beetle larval gut extracts; test: Amino-peptidase activity of Colorado potato beetle gut extract, L-Arg-pNA; type: biochemical, Leptinotarsa decemlineata
# From the text: as §4
# Chain of p41 invariant chain fragment (P04233 210-274, change not shown): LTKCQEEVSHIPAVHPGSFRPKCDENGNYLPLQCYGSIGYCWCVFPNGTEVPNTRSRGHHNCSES
molecule,measurement,setting,value
p41 invariant chain fragment (from UniProt P04233 194-258),"residual protease activity (FITC-hemoglobin), pH 3.5 (% residual activity)",[1],43
same,"residual protease activity (FITC-hemoglobin), pH 3.5 (% residual activity)",[2],13
same,"residual amino-peptidase activity (L-Arg-pNA), equimolar inhibitor (% of residual activity)",[3],85
same,"residual amino-peptidase activity (L-Arg-pNA), excess inhibitor (% of residual activity)",[3],75
same,"residual broad spectrum endoprotease activity (Z-Phe-Arg-pNA), equimolar inhibitor (% of residual activity)",[3],30
same,"residual broad spectrum endoprotease activity (Z-Phe-Arg-pNA), excess inhibitor (% of residual activity)",[3],20
same,residual general proteolytic activity (azocasein) in excess of inhibitor (% residual activity),[3],10
same,"residual narrow spectrum endoprotease activity (Z-Arg-Arg-pNA), equimolar inhibitor (% of residual activity)",[3],20
same,"residual narrow spectrum endoprotease activity (Z-Arg-Arg-pNA), excess inhibitor (% of residual activity)",[3],-5
same,"residual tri-peptidil-peptidase and endoprotease activity (pGlu-Phe-Leu-pNA), equimolar inhibitor (% of residual activity)",[3],10
same,"residual tri-peptidil-peptidase and endoprotease activity (pGlu-Phe-Leu-pNA), excess inhibitor (% of residual activity)",[3],-5
β-trypsin,"limited proteolysis, reverse-phase HPLC and N-terminal sequencing",[4],equistatin was found to be a good substrate for trypsin
bean cystatin,"residual protease activity (FITC-hemoglobin), pH 3.5 (% residual activity)",[2],14
thyroglobulin: protein containing type I repeated thyroglobulin domains [reference compound],inhibition of cysteine proteases,cysteine proteases,do not inhibit
"CC(C)CC(=O)N[C@H](C(=O)N[C@H](C(=O)N[C@@H](CC(C)C)[C@@H](O)CC(=O)N[C@@H](C)C(=O)N[C@@H](CC(C)C)[C@@H](O)CC(=O)O)C(C)C)C(C)C [Pepstatin, reference compound] (Isovaleryl-VV[Sta]A[Sta]-OH)",residual protease activity,"thrips protease activity; thrips pH 3.5, equistatin purified from sea anemone",84%
same,inhibition of protease activity,"thrips protease activity; thrips, pH 3.5",16%
same,residual protease activity,leafminer proteases,46%
same,residual protease activity,[5]; western corn rootworm pH 3,45%
same,residual protease activity,[5]; western corn rootworm pH 6.5,58%
same,inhibition of total protease activity,"[6]; Colorado potato beetle, pH3",82%
same,residual protease activity,"[6]; colorado potato beetle pH 3, recombinant equistatin",18%
first domain of equistatin (eq d-1) (protein) SLTLCGGLGASAASGLIGTTVPGCLGTGGPGGLGCTGSTGTCTCVAGAGLGILGTLIAGSPACSAAL,Ki,papain [7],0.00061 µM
same,Ki,cathepsin D [8],> 1 µM
same,koff,papain [9],0.0011 s⁻¹
same,kon,papain [9],1.8e+06 M⁻¹ s⁻¹
same,Ki,cathepsin D [10],1000 µM
"entactin: protein with domains homologous to type I repeated thyroglobulin domains (protein, UniProt P14543 29-1247, looked up) Nidogen-1: LSRQELFPFGPGQGDLELEDGDDFVSPALELSGALRFYDRSDIDAVYVTTNGIIATSEPPAKESHPGLFPPTFGAVAPFLADLDTTDGLGKVYYREDLSPSITQRAAECVHRGFPEISFQPSSAVVVTWESVAPYQGPSRDPDQKGKRNTFQAVLASSDSSSYAIFLYPEDGLQFHTTFSKKENNQVPAVVAFSQGSVGFLWKSNGAYNIFANDRESVENLAKSSNSGQQGVWVFEIGSPATTNGVVPADVILGTEDGAEYDDEDEDYDLATTRLGLEDVGTTPFSYKALRRGGADTYSVPSVLSPRRAATERPLGPPTERTRSFQLAVETFHQQHPQVIDVDEVEETGVVFSYNTDSRQTCANNRHQCSVHAECRDYATGFCCSCVAGYTGNGRQCVAEGSPQRVNGKVKGRIFVGSSQVPIVFENTDLHSYVVMNHGRSYTAISTIPETVGYSLLPLAPVGGIIGWMFAVEQDGFKNGFSITGGEFTRQAEVTFVGHPGNLVIKQRFSGIDEHGHLTIDTELEGRVPQIPFGSSVHIEPYTELYHYSTSVITSSSTREYTVTEPERDGASPSRIYTYQWRQTITFQECVHDDSRPALPSTQQLSVDSVFVLYNQEEKILRYALSNSIGPVREGSPDALQNPCYIGTHGCDTNAACRPGPRTQFTCECSIGFRGDGRTCYDIDECSEQPSVCGSHTICNNHPGTFRCECVEGYQFSDEGTCVAVVDQRPINYCETGLHNCDIPQRAQCIYTGGSSYTCSCLPGFSGDGQACQDVDECQPSRCHPDAFCYNTPGSFTCQCKPGYQGDGFRCVPGEVEKTRCQHEREHILGAAGATDPQRPIPPGLFVPECDAHGHYAPTQCHGSTGYCWCVDRDGREVEGTRTRPGMTPPCLSTVAPPIHQGPAVPTAVIPLPPGTHLLFAQTGKIERLPLEGNTMRKTEAKAFLHVPAKVIIGLAFDCVDKMVYWTDITEPSIGRASLHGGEPTTIIRQDLGSPEGIAVDHLGRNIFWTDSNLDRIEVAKLDGTQRRVLFETDLVNPRGIVTDSVRGNLYWTDWNRDNPKIETSYMDGTNRRILVQDDLGLPNGLTFDAFSSQLCWVDAGTNRAECLNPSQPSRRKALEGLQYPFAVTSYGKNLYFTDWKMNSVVALDLAISKETDAFQPHKQTRLYGITTALSQCPQGHNYCSVNNGGCTHLCLATPGSRTCRCPDNTLGVDCIEQK",inhibition of cysteine proteases,cysteine proteases,do not inhibit
"combined second and third domain of equistatin (eq d-2,3) (protein) AALTLCGMMGAIIVAVPGTCGPPSCLAAGSPAGVGCCASAGGCTCVALLGLGLGGTAGGGAPTCGAHLSGCGGAAILAHSASLAVGMPVPGCLGAGSTAPVGCTPSTGTCTCVAGGGVLVPGSAVAPLAPTC",Ki,cathepsin D [8],0.0004 µM
same,Ki,papain [9],> 1 µM
same,Ki,cathepsin D [10],> 0.0006 µM
"human stefin A: Type I cystatin (protein, UniProt P01040 1-98, looked up) Cystatin-A: MIPGGLSEAKPATPEIQEIVDKVKPQLEEKTNETYGKLEAVQYKTQVVAGTNYYIKVRAGDNKYMHLKVFKSLPGQNEDLVLTGYQVDKNKDDELTGF","% of residual activity, excess inhibitor",[11],90%
same,Residual activity in excess of inhibitor,[12],90%
same,"% of residual activity, equimolar",[13]; equimolar,95%
same,"% of residual activity, excess inhibitor",[13]; excess inhibitor,80%
same,"% of residual activity, equimolar",[14]; equimolar,95%
same,"% of residual activity, excess inhibitor",[14]; excess inhibitor,90%
same,"% of residual activity, equimolar",[15]; equimolar,60%
same,"% of residual activity, excess inhibitor",[15]; excess inhibitor,10%

# Source: US6861578B1, “Method for plant protection against insects or nematodes by transformation with a nucleic acid encoding equistatin” (Plant Research International B.V., priority 1997, dated 2005)
